Residue numbers refer to the chain shown, from its start.
B1: IgG2-AAS(341) antibody (antibody)
heavy: QVQLQQSGPGLVKPSQTLSLTCAISGDSVSSNSATWNWIRQSPSRDLEWLGRTYYRSKWYRDYVGSVKSRIIINPDTSNNQFSLQLNSVTPEDTAIYYCTRAQWLGGDYPYYYSMDVWGQGTTVTVSSASTKGPSVFPLAPCSRSTSESTAALGCLVKDYFPEPVTVSWNSGALTSGVHTFPAVLQSSGLYSLSSVVTVPSSNFGTQTYTCNVDHKPSNTKVDKTVERKCCVECPPCPAPPAAAPSVFLFPPKPKDTLMISRTPEVTCVVVDVSHEDPEVQFNWYVDGVEVHNAKTKPREEQFNSTFRVVSVLTVVHQDWLNGKEYKCKVSNKGLPASIEKTISKTKGQPREPQVYTLPPSREEMTKNQVSLTCLVKGFYPSDIAVEWESNGQPENNYKTTPPMLDSDGSFFLYSKLTVDKSRWQQGNVFSCSVMHEALHNHYTQKSLSLSPGK
light: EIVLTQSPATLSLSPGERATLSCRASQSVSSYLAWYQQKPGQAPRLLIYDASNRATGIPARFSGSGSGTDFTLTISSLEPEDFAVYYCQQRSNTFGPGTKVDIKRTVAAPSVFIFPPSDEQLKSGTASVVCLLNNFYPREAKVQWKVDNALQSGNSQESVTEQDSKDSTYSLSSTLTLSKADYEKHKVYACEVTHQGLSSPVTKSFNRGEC
notes: kappa light chain; Signal peptides (1-20 of each chain, estimated by SignalP) are left out; Expressed transiently in 293 cells and purified on protein A
B2: IgG2-S(341) antibody (antibody)
heavy: B1 heavy with A242V, A244G
light: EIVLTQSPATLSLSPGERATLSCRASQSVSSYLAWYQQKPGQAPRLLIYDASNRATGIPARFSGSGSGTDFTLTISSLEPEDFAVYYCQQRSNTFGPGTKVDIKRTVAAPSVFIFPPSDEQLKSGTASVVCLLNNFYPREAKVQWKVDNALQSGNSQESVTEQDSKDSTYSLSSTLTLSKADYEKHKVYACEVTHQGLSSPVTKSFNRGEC

Molecular target: T1, human CD40 (human, UniProt P25942 21-277)
T1 construct: Endogenous CD40 on Ramos cells (ATCC CRL-1596), 'which expresses human CD40'
T1 sequence (P25942 21-277 limits assumed): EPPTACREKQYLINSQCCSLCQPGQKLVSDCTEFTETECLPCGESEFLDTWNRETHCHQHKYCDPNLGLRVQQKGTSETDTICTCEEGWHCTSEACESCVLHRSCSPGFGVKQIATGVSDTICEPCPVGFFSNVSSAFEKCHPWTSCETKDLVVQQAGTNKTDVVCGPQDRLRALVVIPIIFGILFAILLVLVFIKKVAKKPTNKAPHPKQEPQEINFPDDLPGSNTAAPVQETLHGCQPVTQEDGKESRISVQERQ
Assay: flow cytometry (FACS, MFI) on Ramos cells expressing human CD40, R-PE anti-human antibody detection
Method: The Ramos cell line was suspended in staining buffer (SB) of PBS containing 0.1% NaN₃, 2 mM EDTA, and 2% FCS at a density of […]. The cell suspension (100 μL/well) was dispensed into a 96-well round-bottom plate (manufactured by Becton Dickinson). The purified antibody (50 μL) was added thereto, followed by incubation at ice temperature for 30 minutes. As negative control, an anti-human IgG2 antibody against 2,4-dinitrophenol was used and the purified antibodies (50 μL) were similarly added, followed by incubation at ice temperature for 15 minutes. After the cells were washed with SB, 50 μL of 250-fold diluted R-PE fluorescence-labeled anti-human antibodies (manufactured by Southern Biotechnology) was added thereto, followed by incubation at ice temperature for 15 minutes. The cells were washed twice with SB and suspended in 300 to 500 μL of FACS buffer. And the fluorescence intensity (MFI) of individual cells was measured by FACS (FACScalibur, manufactured by Becton Dickinson).

Binder	binding result
B1	binds
B2	binds
